Test results taken from IntAct's records for PubMed 16388599.

B1: Tyrosine-protein phosphatase non-receptor type 1 (Homo sapiens), P18031 (parent)
chain: MEMEKEFEQIDKSGSWAAIYQDIRHEASDFPCRVAKLPKNKNRNRYRDVSPFDHSRIKLHQEDNDYINASLIKMEEAQRSYILTQGPLPNTCGHFWEMVWEQKSRGVVMLNRVMEKGSLKCAQYWPQKEEKEMIFEDTNLKLTLISEDIKSYYTVRQLELENLTTQETREILHFHYTTWPDFGVPESPASFLNFLFKVRESGSLSPEHGPVVVHCSAGIGRSGTFCLADTCLLLMDKRKDPSSVDIKKVLLEMRKFRMGLIQTADQLRFSYLAVIEGAKFIMGDSSVQDQWKELSHEDLEPPPEHIPPPPRPPKRILEPHNGKCREFFPNHQWVKEETQEDKDCPIKEEKGSPLNAAPYGIESMSQDTEVRSRVVGGSLRGAQAASPAKGEPSLPEKDEDHALSYWKPFLVNMCVATVLTAGAYLCYRFLFNSNT

Variants of: B1
Details: with cav1_human CAV1, Q03135
cav1_human CAV1, Q03135, sequence (Q03135 whole entry): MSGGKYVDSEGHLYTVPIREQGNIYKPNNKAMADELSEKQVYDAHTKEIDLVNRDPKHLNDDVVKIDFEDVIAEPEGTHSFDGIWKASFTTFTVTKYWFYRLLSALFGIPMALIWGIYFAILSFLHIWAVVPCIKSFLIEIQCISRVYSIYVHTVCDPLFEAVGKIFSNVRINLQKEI

Variant	effect of a mutation on the interaction
D181A	disrupting interaction
